Consider 94 variants from the supplement of paper PMC10567573.

B1: KRT18 (parent)
chain: RVRSLETENRRLESKIREHLEKKG
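Note: lentivirally expressed fusions sorted by FACS into six bins by GFP to DsRed ratio, PSI derived from sequencing read proportions per bin multiplied by bin number.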

The variants in the series derive from B1. The series is described as follows: protein stability index of a GFP-peptide fusion (GPS, HEK-293T) (PSI 1-6); higher = more stable. To be noted: c terminus: a fixed tail appended.
Turning to PVRSLETENRRLESKIREHLEKKG [R1P], the protein stability index came to 4.45. The same measure for FVRSLETENRRLESKIREHLEKKG [R1F]: 1.21. The value for VVRSLETENRRLESKIREHLEKKG [R1V] was 4.19; that for IVRSLETENRRLESKIREHLEKKG [R1I] was 3.38; that for NVRSLETENRRLESKIREHLEKKG [R1N] was 4.56. With MVRSLETENRRLESKIREHLEKKG [R1M], the protein stability index came to 4.09. The same measure for YVRSLETENRRLESKIREHLEKKG [R1Y]: 1.78; for KVRSLETENRRLESKIREHLEKKG [R1K]: 3.94.

Consider GVRSLETENRRLESKIREHLEKKG [R1G], for which the protein stability index turned out to be 4.36.

As to QVRSLETENRRLESKIREHLEKKG [R1Q], the protein stability index was found to be 4.7.

HVRSLETENRRLESKIREHLEKKG [R1H]: the protein stability index was found to be 4.14. Take RVRSYETENRRLESKIREHLEKKG [L5Y]: the protein stability index came out at 4.32. The value for RVRSVETENRRLESKIREHLEKKG [L5V] was 5.01; that for RVRSWETENRRLESKIREHLEKKG [L5W] was 4.29. The value for RVRSCETENRRLESKIREHLEKKG [L5C] was 3.41; that for RVRSQETENRRLESKIREHLEKKG [L5Q] was 4.67. The value for RVRSKETENRRLESKIREHLEKKG [L5K] was 3.99; that for RVRSFETENRRLESKIREHLEKKG [L5F] was 4.5; that for RVRSNETENRRLESKIREHLEKKG [L5N] was 5.06.

Consider RVRSDETENRRLESKIREHLEKKG [L5D], for which the protein stability index came out at 4.64.

On to RVRSTETENRRLESKIREHLEKKG [L5T], for which the protein stability index came out at 4.35.

With RVRSMETENRRLESKIREHLEKKG [L5M], the protein stability index was 4.77. The same measure for RVRSAETENRRLESKIREHLEKKG [L5A]: 4.54; for RVRYLETENRRLESKIREHLEKKG [S4Y]: 3.3. The value for RVRMLETENRRLESKIREHLEKKG [S4M] was 3.64; that for RVRELETENRRLESKIREHLEKKG [S4E] was 4.48; that for RVRHLETENRRLESKIREHLEKKG [S4H] was 3.84. The value for RVRGLETENRRLESKIREHLEKKG [S4G] was 4.35.

For RVRVLETENRRLESKIREHLEKKG [S4V], the protein stability index came out at 3.54.

For RVRILETENRRLESKIREHLEKKG [S4I], the protein stability index worked out at 2.97.

Regarding RVRRLETENRRLESKIREHLEKKG [S4R], the protein stability index came out at 4.29. The value for RVRCLETENRRLESKIREHLEKKG [S4C] was 3.5. The value for RVRKLETENRRLESKIREHLEKKG [S4K] was 4.26. The same measure for RVRFLETENRRLESKIREHLEKKG [S4F]: 4.29; for RVRNLETENRRLESKIREHLEKKG [S4N]: 4.32. As to RVRALETENRRLESKIREHLEKKG [S4A], the protein stability index was found to be 4.24. In the case of RVRPLETENRRLESKIREHLEKKG [S4P], the protein stability index was 4.58.

Take RVRSLDTENRRLESKIREHLEKKG [E6D]: the protein stability index worked out at 4.62.

RVRSLRTENRRLESKIREHLEKKG [E6R]: the protein stability index was determined as 3.96. The same measure for RVRSLKTENRRLESKIREHLEKKG [E6K]: 4.02; for RVRSLPTENRRLESKIREHLEKKG [E6P]: 4.44; for RVRSLTTENRRLESKIREHLEKKG [E6T]: 3.01. The value for RVRSLITENRRLESKIREHLEKKG [E6I] was 3.84; that for RVRSLMTENRRLESKIREHLEKKG [E6M] was 3.4. For RVRSLFTENRRLESKIREHLEKKG [E6F], the protein stability index stood at 3.32.

In the case of RVRSLLTENRRLESKIREHLEKKG [E6L], the protein stability index worked out at 2.31.

Regarding RVRSLNTENRRLESKIREHLEKKG [E6N], the protein stability index amounted to 3.33. The same measure for RVRSLVTENRRLESKIREHLEKKG [E6V]: 4.11; for RVRSLYTENRRLESKIREHLEKKG [E6Y]: 2.53; for RVRSLCTENRRLESKIREHLEKKG [E6C]: 4.43. As to RVQSLETENRRLESKIREHLEKKG [R3Q], the protein stability index was 4.37.

As to RVASLETENRRLESKIREHLEKKG [R3A], the protein stability index turned out to be 4.51. For RVYSLETENRRLESKIREHLEKKG [R3Y], the protein stability index is 3.15. With RVWSLETENRRLESKIREHLEKKG [R3W], the protein stability index is 3.43. The same measure for RVGSLETENRRLESKIREHLEKKG [R3G]: 4.64; for RVVSLETENRRLESKIREHLEKKG [R3V]: 4.44; for RVLSLETENRRLESKIREHLEKKG [R3L]: 4.51. For the variant RVFSLETENRRLESKIREHLEKKG [R3F], the protein stability index stood at 3.46. The value for RVESLETENRRLESKIREHLEKKG [R3E] was 4.85. The value for RVKSLETENRRLESKIREHLEKKG [R3K] was 4.45.

As for RVCSLETENRRLESKIREHLEKKG [R3C], the protein stability index worked out at 3.42.

Take RVHSLETENRRLESKIREHLEKKG [R3H]: the protein stability index was 3.61. The same measure for RVTSLETENRRLESKIREHLEKKG [R3T]: 4.46. The value for RVDSLETENRRLESKIREHLEKKG [R3D] was 4.22; that for RVISLETENRRLESKIREHLEKKG [R3I] was 3.91.

Consider RVMSLETENRRLESKIREHLEKKG [R3M], for which the protein stability index came to 3.72. The value for RVPSLETENRRLESKIREHLEKKG [R3P] was 4.42; that for RNRSLETENRRLESKIREHLEKKG [V2N] was 4.16; that for RKRSLETENRRLESKIREHLEKKG [V2K] was 4.77. The same measure for RPRSLETENRRLESKIREHLEKKG [V2P]: 4.65; for RARSLETENRRLESKIREHLEKKG [V2A]: 4.64; for RTRSLETENRRLESKIREHLEKKG [V2T]: 5.11. With RHRSLETENRRLESKIREHLEKKG [V2H], the protein stability index is 4.07. The same measure for RQRSLETENRRLESKIREHLEKKG [V2Q]: 4.44.

As to RYRSLETENRRLESKIREHLEKKG [V2Y], the protein stability index is 4.54. The value for RIRSLETENRRLESKIREHLEKKG [V2I] was 4.21.

For the variant RDRSLETENRRLESKIREHLEKKG [V2D], the protein stability index was determined as 4.83.

With RLRSLETENRRLESKIREHLEKKG [V2L], the protein stability index was 3.55. For RWRSLETENRRLESKIREHLEKKG [V2W], the protein stability index came out at 3.9.

RCRSLETENRRLESKIREHLEKKG [V2C]: the protein stability index amounted to 4.78. The value for RMRSLETENRRLESKIREHLEKKG [V2M] was 3.82.

RERSLETENRRLESKIREHLEKKG [V2E]: the protein stability index is 5.32. The value for RVRSLESENRRLESKIREHLEKKG [T7S] was 4.25; that for RVRSLEFENRRLESKIREHLEKKG [T7F] was 4.79; that for RVRSLEEENRRLESKIREHLEKKG [T7E] was 5.17. The value for RVRSLEDENRRLESKIREHLEKKG [T7D] was 4.17; that for RVRSLEPENRRLESKIREHLEKKG [T7P] was 4.9; that for RVRSLELENRRLESKIREHLEKKG [T7L] was 4.54. Turning to RVRSLERENRRLESKIREHLEKKG [T7R], the protein stability index was 4.1. The value for RVRSLEGENRRLESKIREHLEKKG [T7G] was 4.22. The value for RVRSLECENRRLESKIREHLEKKG [T7C] was 4.97; that for RVRSLEQENRRLESKIREHLEKKG [T7Q] was 4.13.

For RVRSLEMENRRLESKIREHLEKKG [T7M], the protein stability index is 4.05. The value for RVRSLENENRRLESKIREHLEKKG [T7N] was 4.34.
